Assays:
human GITR on cells = target: T1, human GITR on cells (human, UniProt Q9Y5U5 26-162); assay: flow cytometry on human T cells activated 48 h with CD3/28 beads; unlabeled antibody detected with APC goat anti-mouse Fc gamma F(ab')2
T1 construct: Endogenous on primary human T cells and Tregs, or transfected into Jurkat and 3A9 cells
T1 sequence: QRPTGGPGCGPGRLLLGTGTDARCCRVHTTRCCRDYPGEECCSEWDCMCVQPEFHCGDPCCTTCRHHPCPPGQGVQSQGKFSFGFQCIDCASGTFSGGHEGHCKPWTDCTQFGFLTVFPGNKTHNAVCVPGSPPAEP
Excerpt: Primary human lymphocytes were isolated from concentrated whole blood provided by the Stanford Blood Bank by first diluting blood 1:4 in Phosphate Buffered Saline (PBS, without Ca2+ and Mg2+). Peripheral Blood Mononuclear Cells (PBMC) were isolated using a Ficoll gradient underlay (Ficoll-Paque PLUS, GE Healthcare Life Sciences, Pittsburgh, Pa.). The harvested buffy layer was washed twice with PBS and counted. Cells were resuspended at 50*10e6c/mL in PBS+2% Fetal Bovine Serum (FBS) and processed with CD3 negative enrichment kit (Stem Cell Tech Vancouver, BC) according to manufacturer's instructions. After enrichment, cells were counted and frozen in aliquots of 10-20*10e6 in 90% FBS 10% DMSO freeze media for future use. For activation, a vial of cells from a donor T cell was thawed and rested overnight in R10c (RPMI 1640+10% FBS+1×NEAA+1×Sodium Pyruvate+1×Pen-Strep) at 1*10e6 cells/mL in a T75 flask. Cells were counted and stimulated for 48 hours with Dynabeads Human CD3/28 T cells activating beads at a 1:1 bead to cell ratio (Thermo Fisher). After 48 hours the cells were removed from media and washed with 1×PBS. Cells were titrated into a 96 well plate where they were stained with unlabeled mouse anti-human GITR antibodies (100-0.001 ug/mL) in PBS and incubated for 30 minutes at 37° c. […]

[1] = target: T2, human GITR (hGITR), soluble analyte (human, UniProt Q9Y5U5 26-162); assay: SPR (Biacore T200), 37 C; antibody captured on anti-human Fc chip, GITR as analyte; 1:1 Langmuir fit
T2 sequence: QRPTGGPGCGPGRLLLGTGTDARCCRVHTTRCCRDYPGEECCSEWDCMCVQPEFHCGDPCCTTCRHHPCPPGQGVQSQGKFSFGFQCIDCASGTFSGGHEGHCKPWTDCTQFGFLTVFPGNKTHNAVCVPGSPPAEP
Description: (§1) The sensor chip preparation was performed at 25° C. with a running buffer of 10 mM HEPES, 150 mM NaCl, 0.05% (v/v) Tween-20, pH 7.4. An anti-human Fc sensor chip was made by activating all flow cells of a Biacore CM4 sensor chip with a 1:1 (v/v) mixture of 400 mM EDC and 100 mM NHS for 7 minutes, at a flow rate of 10 μL/min. An anti-human Fc reagent (Goat Anti-Human IgG Fc, SouthernBiotech Catalog #2081-01) was diluted to […] in 10 mM Sodium Acetate pH 4.5 and injected on all flow cells for 7 minutes at 20 μL/min. All flow cells were blocked with 100 mM ethylenediamine in 150 mM Borate buffer pH 8.5 for 7 minutes at 10 μL/min.
(§2) Antibodies were captured from undiluted supernatants onto downstream flow cells (flow cells 2, 3 and 4) at a flow rate of 10 μL/min for 2 minutes. Different antibodies were captured on each flow cell. Flow cell 1 was used as a reference surface. Following capture of antibodies, analyte (buffer, hGITR, or cyGITR) was injected at 30 μL/min on all flow cells for two minutes. After the analyte injection, dissociation was monitored for 10 minutes followed by regeneration of all flow cells with three 1-minute injections of 75 mM Phosphoric Acid. For each captured antibody, the following analyte injections were performed: buffer, 20 nM hGITR, 200 nM hGITR, 20 nM cyGITR and 200 nM cyGITR. Buffer cycles were collected for each captured antibody for double-referencing purposes (double-referencing as described in Myszka, J. Mol. Recognit. 12:279-284 (1999). The double-referenced sensorgrams were fit globally to a simple 1:1 Langmuir with mass transport binding model.

[2] = target: T3, cynomolgus GITR (cyGITR), soluble analyte (cynomolgus); assay: as above
T3 construct: Soluble analyte in SPR; construct not described; also called cGITR
Description: as §1, §2

B1: m10H2 (antibody, V domains shown)
VH: QVQLQQSGAELMKPGASVKISCTATGYTISRYWIEWVKQRPGHGLEWIGEILPGSGVTNYNEKFKGKATFTADTSSNTAYMQLSSLTSEDSAVYSCARKGTYYAMDYWGQGTSVTVSS
VL: DILLTQSPAILSVSPGERVSFSCRASQSIGTSIHWYQQRTNGSPRLLIKYASESVSGIPSRFSGSGSGTDFTLFINSVESEDIADYYCQQTYSWPATFGAGTKLELK
notes: In ADCC it is called hIgG1; also called anti-human GITR antibody m10H2; A647 labeled m10H2
EC50 (read off the curve) (human GITR on cells): ~0.07 mg/L | Kd [1]: 2.2 nM | koff [1]: 0.00077 s⁻¹ | kon [1]: 350000 M⁻¹ s⁻¹ | t1/2 [1]: 15 min | Kd [2]: > 100 nM | koff [2]: 0.0073 s⁻¹ | t1/2 [2]: 1.6 min

Reference: patent US20200031947A1 (RINAT NEUROSCIENCE, published 2020)
